# Columns and labels:
# [1] = target: c-Src SH2; experiment: SH2 binding enrichment of the phosphorylated peptide, bacterial display (enrichment ratio); higher = better substrate or ligand; peptides without Tyr show the background
# [2] = target: SHP2-C SH2; experiment: as above
# [3] = target: Grb2 SH2 (UniProt P62993); experiment: as above
# [4] = system: AncSZ; experiment: phosphorylation enrichment, bacterial display (enrichment ratio); higher = better substrate or ligand; peptides without Tyr show the background
# [5] = target: EPHB1 (UniProt P54762); experiment: as above
# Chain of EPHB1 (P54762 whole entry, looked up): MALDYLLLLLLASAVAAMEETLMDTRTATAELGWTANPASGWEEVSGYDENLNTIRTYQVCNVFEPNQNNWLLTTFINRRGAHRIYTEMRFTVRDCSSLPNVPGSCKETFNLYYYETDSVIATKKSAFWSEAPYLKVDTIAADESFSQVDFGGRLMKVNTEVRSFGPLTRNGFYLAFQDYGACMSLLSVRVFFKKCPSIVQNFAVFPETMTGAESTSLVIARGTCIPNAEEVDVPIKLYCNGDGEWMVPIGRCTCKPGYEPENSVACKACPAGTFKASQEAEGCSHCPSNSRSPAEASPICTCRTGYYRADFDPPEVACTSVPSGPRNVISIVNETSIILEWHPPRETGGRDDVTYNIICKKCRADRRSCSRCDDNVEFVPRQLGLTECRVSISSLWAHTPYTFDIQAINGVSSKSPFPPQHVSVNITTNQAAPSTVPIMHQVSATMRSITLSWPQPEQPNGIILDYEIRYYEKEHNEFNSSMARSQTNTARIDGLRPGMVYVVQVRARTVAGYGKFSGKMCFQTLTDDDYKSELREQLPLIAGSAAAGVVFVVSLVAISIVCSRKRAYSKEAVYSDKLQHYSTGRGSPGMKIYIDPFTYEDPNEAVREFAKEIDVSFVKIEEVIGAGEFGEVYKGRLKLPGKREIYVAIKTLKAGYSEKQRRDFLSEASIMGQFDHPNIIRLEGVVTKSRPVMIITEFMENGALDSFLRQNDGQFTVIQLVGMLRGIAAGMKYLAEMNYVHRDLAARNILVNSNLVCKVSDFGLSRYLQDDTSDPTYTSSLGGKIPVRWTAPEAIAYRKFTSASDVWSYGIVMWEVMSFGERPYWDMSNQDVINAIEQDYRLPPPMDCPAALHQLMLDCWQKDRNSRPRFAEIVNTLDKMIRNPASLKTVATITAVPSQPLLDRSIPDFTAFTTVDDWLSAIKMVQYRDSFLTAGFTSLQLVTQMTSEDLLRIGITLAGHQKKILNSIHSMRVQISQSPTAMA
# [6] = target: EPHB2 (UniProt P29323); experiment: as above
# [7] = target: MERTK (UniProt Q12866); experiment: as above
# Chain of MERTK (Q12866 whole entry, looked up): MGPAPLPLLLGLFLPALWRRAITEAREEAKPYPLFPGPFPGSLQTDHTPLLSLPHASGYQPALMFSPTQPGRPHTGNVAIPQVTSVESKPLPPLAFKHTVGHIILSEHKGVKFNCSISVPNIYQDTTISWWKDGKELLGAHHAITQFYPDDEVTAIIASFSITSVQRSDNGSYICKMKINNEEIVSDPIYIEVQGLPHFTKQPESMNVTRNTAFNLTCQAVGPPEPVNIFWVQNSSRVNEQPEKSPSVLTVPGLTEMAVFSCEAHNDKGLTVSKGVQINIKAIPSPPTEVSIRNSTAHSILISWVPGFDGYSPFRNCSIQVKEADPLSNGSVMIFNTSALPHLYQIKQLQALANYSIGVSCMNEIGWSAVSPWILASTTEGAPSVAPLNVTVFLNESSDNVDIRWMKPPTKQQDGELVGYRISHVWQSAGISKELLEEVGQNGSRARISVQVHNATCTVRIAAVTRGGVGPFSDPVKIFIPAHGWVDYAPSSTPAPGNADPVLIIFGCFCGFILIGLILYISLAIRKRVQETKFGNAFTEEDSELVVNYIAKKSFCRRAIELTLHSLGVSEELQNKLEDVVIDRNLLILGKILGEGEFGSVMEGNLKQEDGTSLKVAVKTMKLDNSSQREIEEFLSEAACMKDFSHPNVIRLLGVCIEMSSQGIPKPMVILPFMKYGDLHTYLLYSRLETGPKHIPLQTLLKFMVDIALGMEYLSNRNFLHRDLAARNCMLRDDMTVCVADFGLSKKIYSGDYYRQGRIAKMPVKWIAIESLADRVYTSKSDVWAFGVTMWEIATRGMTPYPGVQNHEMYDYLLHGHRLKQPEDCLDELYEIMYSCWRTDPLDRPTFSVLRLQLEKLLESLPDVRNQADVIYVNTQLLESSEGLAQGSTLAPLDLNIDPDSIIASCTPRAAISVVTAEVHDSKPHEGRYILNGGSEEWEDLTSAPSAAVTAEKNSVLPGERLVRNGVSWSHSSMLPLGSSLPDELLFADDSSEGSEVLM
# [8] = target: FGFR3 (UniProt P22607); experiment: as above
# [9] = target: Fyn (UniProt P06241); experiment: as above
# Chain of Fyn (P06241 whole entry, looked up): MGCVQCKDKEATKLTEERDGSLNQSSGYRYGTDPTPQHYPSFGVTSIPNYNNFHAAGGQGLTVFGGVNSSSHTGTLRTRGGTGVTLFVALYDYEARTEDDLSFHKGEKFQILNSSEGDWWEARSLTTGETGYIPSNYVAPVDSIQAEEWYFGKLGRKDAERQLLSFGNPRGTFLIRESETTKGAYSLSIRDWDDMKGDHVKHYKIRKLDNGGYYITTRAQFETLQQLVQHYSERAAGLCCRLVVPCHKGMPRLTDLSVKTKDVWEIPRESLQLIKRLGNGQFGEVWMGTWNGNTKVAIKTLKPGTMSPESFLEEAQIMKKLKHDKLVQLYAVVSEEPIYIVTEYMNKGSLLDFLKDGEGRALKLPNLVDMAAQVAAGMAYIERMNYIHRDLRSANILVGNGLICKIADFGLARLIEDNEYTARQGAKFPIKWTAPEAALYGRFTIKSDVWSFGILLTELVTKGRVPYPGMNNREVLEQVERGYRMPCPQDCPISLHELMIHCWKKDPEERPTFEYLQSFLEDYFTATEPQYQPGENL
# [10] = target: FGFR1 (UniProt P11362); experiment: as above
# Chain of FGFR1 (P11362 whole entry, looked up): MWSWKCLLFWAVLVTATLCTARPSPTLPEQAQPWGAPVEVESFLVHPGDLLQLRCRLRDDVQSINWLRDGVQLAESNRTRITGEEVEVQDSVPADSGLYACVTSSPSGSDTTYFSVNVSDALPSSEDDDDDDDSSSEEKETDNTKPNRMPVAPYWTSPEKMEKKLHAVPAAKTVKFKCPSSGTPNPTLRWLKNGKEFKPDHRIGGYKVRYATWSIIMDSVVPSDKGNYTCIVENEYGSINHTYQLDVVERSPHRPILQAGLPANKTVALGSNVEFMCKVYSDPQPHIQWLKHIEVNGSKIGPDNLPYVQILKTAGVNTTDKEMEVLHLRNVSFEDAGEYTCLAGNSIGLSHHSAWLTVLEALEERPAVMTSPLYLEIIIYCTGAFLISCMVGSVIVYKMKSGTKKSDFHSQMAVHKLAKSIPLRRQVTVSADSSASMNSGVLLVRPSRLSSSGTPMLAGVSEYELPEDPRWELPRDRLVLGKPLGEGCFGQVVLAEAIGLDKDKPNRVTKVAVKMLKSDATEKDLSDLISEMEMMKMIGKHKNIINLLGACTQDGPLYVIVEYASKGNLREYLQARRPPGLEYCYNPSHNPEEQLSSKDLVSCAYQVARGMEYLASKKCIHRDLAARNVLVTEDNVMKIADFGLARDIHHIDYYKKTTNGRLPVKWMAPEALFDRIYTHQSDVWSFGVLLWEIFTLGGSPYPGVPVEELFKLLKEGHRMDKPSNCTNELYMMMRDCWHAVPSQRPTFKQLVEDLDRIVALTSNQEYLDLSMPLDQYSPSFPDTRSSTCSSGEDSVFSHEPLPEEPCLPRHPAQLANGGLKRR
# [11] = system: c-Src; experiment: as above
# [12] = target: Hck (UniProt P08631); experiment: as above
# Chain of Hck (P08631 whole entry, looked up): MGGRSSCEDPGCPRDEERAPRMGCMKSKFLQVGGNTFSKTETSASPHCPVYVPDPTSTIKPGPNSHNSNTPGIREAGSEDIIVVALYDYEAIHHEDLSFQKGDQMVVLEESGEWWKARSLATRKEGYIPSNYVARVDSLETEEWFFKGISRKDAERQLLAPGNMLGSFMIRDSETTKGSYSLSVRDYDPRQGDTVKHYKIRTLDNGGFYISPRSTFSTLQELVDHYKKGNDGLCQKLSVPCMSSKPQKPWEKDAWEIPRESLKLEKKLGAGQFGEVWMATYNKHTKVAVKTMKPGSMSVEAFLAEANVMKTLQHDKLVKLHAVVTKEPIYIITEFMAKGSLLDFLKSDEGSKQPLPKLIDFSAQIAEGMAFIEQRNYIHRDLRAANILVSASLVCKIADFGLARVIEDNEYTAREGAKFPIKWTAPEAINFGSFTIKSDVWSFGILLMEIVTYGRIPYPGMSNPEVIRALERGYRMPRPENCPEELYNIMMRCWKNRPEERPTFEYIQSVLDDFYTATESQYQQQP
# [13] = system: Fer (mouse); experiment: as above
# [14] = target: Fes (UniProt P07332); experiment: as above
# [15] = target: Jak2 (UniProt O60674); experiment: as above
# Chain of Jak2 (O60674 whole entry, looked up): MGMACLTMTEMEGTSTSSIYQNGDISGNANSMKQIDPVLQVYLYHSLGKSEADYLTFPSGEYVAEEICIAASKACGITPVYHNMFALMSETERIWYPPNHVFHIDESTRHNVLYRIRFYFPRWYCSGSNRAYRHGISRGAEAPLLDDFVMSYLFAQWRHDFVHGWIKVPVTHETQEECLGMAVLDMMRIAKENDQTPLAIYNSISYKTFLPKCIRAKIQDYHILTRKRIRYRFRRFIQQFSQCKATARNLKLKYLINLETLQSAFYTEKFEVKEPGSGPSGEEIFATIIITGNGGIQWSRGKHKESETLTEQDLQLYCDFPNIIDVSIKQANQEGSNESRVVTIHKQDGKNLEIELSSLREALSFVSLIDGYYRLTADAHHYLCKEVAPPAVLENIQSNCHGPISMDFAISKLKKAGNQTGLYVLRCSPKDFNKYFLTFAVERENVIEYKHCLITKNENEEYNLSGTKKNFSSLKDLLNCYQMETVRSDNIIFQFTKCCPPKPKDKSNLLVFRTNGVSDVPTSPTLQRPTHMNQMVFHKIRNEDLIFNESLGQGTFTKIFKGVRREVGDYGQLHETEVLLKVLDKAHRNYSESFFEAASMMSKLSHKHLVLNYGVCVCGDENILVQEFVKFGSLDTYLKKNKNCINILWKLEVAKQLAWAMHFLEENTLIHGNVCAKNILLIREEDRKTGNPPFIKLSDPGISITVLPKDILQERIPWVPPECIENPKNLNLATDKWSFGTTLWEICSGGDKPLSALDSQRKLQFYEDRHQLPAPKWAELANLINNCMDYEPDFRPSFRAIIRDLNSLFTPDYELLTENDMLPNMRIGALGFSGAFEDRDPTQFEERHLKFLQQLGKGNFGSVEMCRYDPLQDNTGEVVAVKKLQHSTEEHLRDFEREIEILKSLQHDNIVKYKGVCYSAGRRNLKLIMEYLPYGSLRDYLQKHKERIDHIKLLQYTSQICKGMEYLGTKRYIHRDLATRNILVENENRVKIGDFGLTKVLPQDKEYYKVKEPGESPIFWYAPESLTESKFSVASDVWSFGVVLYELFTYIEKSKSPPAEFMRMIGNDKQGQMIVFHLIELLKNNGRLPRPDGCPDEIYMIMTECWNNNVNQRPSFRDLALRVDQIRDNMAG
# [16] = system: c-Abl (mouse); experiment: as above
# 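Throughout, for SH2 binding enrichment of the phosphorylated peptide, bacterial display: peptide library displayed on the E. coli surface as eCPX fusions, selected cells deep-sequenced, score is each peptide's frequency after selection divided by its frequency in the input.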
# 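Throughout, for phosphorylation enrichment, bacterial display: 11-residue human phosphosite peptides and single-mutation variants displayed on the E. coli surface, counted by deep sequencing, each peptide's frequency after selection divided by its frequency in the unselected input library; frequency after pTyr selection over input frequency; kinase dosed for 20-30% of maximal phosphorylation in three min.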
Sequence,SH2 binding enrichment [1],SH2 binding enrichment [2],SH2 binding enrichment [3],phosphorylation enrichment [4],phosphorylation enrichment [5],phosphorylation enrichment [6],phosphorylation enrichment [7],phosphorylation enrichment [8],phosphorylation enrichment [9],phosphorylation enrichment [10],phosphorylation enrichment [11],phosphorylation enrichment [12],phosphorylation enrichment [13],phosphorylation enrichment [14],phosphorylation enrichment [15],phosphorylation enrichment [16]
RLIEGYTGPFK [ZNF862_Y181],0.472,0.862,0.808,1.59,1.07,0.927,1.23,1.29,1.1,1.13,1.29,1.3,1.21,1.75,1.79,1.12
GGGFGYQKTRK [DDX18_Y643_K647R],0.536,0.461,0.976,0.597,0.629,0.302,0.514,0.46,0.401,0.422,0.492,0.393,0.422,0.613,0.57,0.719
NNIDYYKNTTN [FGFR2_Y657_K659N],0.546,0.73,1.27,0.756,0.359,0.473,0.32,0.605,0.417,0.552,0.387,0.512,0.648,0.745,0.596,0.446
HCYNSYTYPRL [PAK7_Y316_S312C],5.34,0.799,0.902,2.4,0.775,0.784,2.84,0.884,0.943,1.35,0.725,0.74,0.684,1.47,1.33,0.932
RAWPPYTVAAD [ANKZF1_Y572_R569W],0.556,0.697,1.08,0.884,0.678,0.517,0.475,0.589,0.571,0.573,0.618,0.597,0.631,1.11,0.683,0.737
CFCSWYRGWAP [TIMP3_Y195_G190C_YF],1.09,1.24,1.17,1.28,0.859,0.707,0.556,1.03,0.647,1.07,4.5,0.887,4.11,1.44,1.25,0.933
GLSSAYGGLTS [KRT8_Y427],0.42,0.572,0.876,0.516,0.555,0.347,0.341,0.449,0.513,0.351,0.469,0.545,0.422,0.584,0.506,0.543
HDKEYYSVHNK [MET_Y1235_Y1230H],0.783,1.67,0.939,1.24,0.714,0.472,0.503,1.88,0.739,2.8,0.506,0.911,0.865,0.729,0.75,0.706
NNVEQYQAMVT [TPR_Y965_S960N],0.754,0.765,0.67,1.08,0.599,0.634,0.523,0.721,0.542,0.581,0.485,0.551,0.528,1.14,0.779,0.683
VIKDKYPKVRY [APTX_Y209_A212V],1.05,1.16,1.19,0.448,0.414,0.437,0.35,0.449,0.365,0.441,0.487,0.466,0.402,0.667,0.693,0.577

# Further lines, with some results ahead:
SH2 binding enrichment [1],SH2 binding enrichment [2],SH2 binding enrichment [3],Sequence,phosphorylation enrichment [4],phosphorylation enrichment [5],phosphorylation enrichment [6],phosphorylation enrichment [7],phosphorylation enrichment [8],phosphorylation enrichment [9],phosphorylation enrichment [10],phosphorylation enrichment [11],phosphorylation enrichment [12],phosphorylation enrichment [13],phosphorylation enrichment [14],phosphorylation enrichment [15],phosphorylation enrichment [16]
0.601,0.642,0.699,VKGGAYFPVTV [MCCC2_Y145_YF],0.703,0.372,0.444,0.692,0.602,0.396,0.713,0.386,0.431,0.419,0.601,0.807,0.522
0.886,1.19,1.03,DRKRQCELLKL [KIF4B_Y684_Y684C],0.646,0.401,0.404,0.356,0.689,0.355,0.502,0.493,0.428,0.432,0.839,0.791,0.679
0.634,0.686,0.861,RHEASYSSDSE [REPS1_Y116_A113E],1.03,0.837,0.591,0.461,0.841,0.845,0.722,0.427,0.954,0.777,1.19,0.784,0.662
0.483,1.17,1.09,GAPATYKGDAR [CACNA1A_Y1013_E1014K],0.432,0.332,0.422,0.384,0.452,0.366,0.419,0.401,0.384,0.319,0.52,0.489,0.568
1.92,1.46,11,QLPATYMNLGP [MST1R_Y1360],0.547,2.99,0.548,6.84,0.616,0.706,0.766,1.23,0.741,0.406,0.747,1.42,0.87
0.966,1.17,1.25,KVALPYKPYFY [POLE_Y100],0.778,0.589,0.438,0.556,0.658,0.465,0.47,0.858,0.485,0.346,0.963,0.962,0.681

# From the supplement of paper PMC10065799, “High-throughput profiling of sequence recognition by tyrosine kinases and SH2 domains using bacterial peptide display” (eLife, 2023)
